PMC3958483 (PLoS ONE, 2014)
Non-standard residues stand in square brackets, D forms with d. No end group written: not given here. *: point of attachment. Biotin = O=C1N[C@H]2[C@H](CS[C@H]2CCCCC(=O)*)N1; pY = N[C@@H](Cc1ccc(OP(=O)(O)O)cc1)C(=O)O

T1: SHP-2 N-terminal + C-terminal (N+C) SH2 domains (human, UniProt Q06124 2-219)
T1 construct: SHP-2, human, N-terminal + C-terminal SH2 domains, aa 2–219; also called SHP-2 (SH2-SH2); SHP2 N+C SH2; source: E. coli BL21(DE3)pLysS, purified (Oxford Protein Production Facility / in house; size exclusion chromatography)
T1 sequence (looked up): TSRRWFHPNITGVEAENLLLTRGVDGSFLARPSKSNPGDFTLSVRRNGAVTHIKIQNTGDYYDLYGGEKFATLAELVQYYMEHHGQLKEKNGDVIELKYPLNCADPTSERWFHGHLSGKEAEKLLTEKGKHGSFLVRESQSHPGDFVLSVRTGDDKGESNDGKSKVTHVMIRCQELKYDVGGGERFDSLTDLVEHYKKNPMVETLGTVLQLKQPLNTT

T2: PLCγ2 SH2-SH2-SH3 (tandem SH2 domains plus the SH3 domain of PLCγ2) (human, UniProt P16885 519-838)
T2 construct: PLCγ2, human, tandem SH2 domains plus SH3 domain, aa 519–838; Printed MW = 42415 of the recombinant protein; also called recombinant PLCγ2 SH2 domains; source: E. coli BL21(DE3)pLysS, purified (Co2+ or Ni2+ column, size exclusion chromatography, same day as SPR)
T2 sequence: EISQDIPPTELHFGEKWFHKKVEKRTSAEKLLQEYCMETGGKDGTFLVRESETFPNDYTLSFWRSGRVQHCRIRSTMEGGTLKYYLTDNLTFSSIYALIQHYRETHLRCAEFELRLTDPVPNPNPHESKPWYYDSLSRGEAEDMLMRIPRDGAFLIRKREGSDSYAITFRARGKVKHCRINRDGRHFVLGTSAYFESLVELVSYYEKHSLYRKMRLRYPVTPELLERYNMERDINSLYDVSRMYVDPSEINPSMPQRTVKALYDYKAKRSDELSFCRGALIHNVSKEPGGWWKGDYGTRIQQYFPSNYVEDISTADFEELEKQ

T3: PLCγ1 SH2-SH2-SH3 (tandem SH2 domains plus the SH3 domain of PLCγ1) (human, UniProt P19174 536-863)
T3 construct: PLCγ1, human, tandem SH2 domains plus SH3 domain, aa 536–863; Printed MW = 42531 of the recombinant protein; also called recombinant PLCγ1; source: E. coli BL21(DE3)pLysS, purified (Co2+ or Ni2+ column, size exclusion chromatography, same day as SPR)
T3 sequence: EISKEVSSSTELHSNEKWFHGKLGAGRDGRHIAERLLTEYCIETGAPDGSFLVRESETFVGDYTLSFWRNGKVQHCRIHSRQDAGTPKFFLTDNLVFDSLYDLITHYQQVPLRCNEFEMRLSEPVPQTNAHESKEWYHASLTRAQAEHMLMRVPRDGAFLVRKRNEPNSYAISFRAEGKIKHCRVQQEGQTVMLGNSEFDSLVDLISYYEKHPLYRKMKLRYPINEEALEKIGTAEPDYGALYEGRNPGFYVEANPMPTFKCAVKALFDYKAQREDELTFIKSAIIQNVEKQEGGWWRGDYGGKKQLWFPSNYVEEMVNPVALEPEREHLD

T4: EAT-2 (recombinant full-length human EAT-2) (human, UniProt O14796 1-132)
T4 construct: EAT-2, human, full length; source: E. coli BL21(DE3)pLysS, purified (Co2+ or Ni2+ column, size exclusion chromatography)
T4 sequence (looked up): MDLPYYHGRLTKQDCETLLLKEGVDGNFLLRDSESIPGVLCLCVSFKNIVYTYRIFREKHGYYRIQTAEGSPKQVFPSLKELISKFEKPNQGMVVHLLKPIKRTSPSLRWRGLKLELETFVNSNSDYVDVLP

T5: SHIP SH2 (SH2 domain from human SHIP-1) (human, UniProt Q92835 5-101)
T5 construct: SHIP-1, human, single SH2 domain; also called hSHIP SH2; SHIP-1 SH2 domain; source: E. coli BL21(DE3)pLysS, purified (Co2+ or Ni2+ column, size exclusion chromatography)
T5 sequence (looked up): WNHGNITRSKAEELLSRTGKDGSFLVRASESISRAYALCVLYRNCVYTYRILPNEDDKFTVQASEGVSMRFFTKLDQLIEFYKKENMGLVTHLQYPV

T6: SAP (recombinant full-length human SAP) (human, UniProt O60880 1-128)
T6 construct: SAP, human, full length; also called SH2D1A; source: E. coli BL21(DE3)pLysS, purified (Co2+ or Ni2+ column, size exclusion chromatography)
T6 sequence (looked up): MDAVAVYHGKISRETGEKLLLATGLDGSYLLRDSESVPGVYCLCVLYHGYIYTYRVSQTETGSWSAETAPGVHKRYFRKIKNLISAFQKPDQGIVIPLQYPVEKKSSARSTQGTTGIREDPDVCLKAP

B1: CD244 ITSM1,ITSM2 (equimolar mixture of single ITSM on chip) (other)
chain 1: Biotin-EFLTI[pY]EDVKD
chain 2: Biotin-GGSTI[pY]SMIQS
modifications: also: equimolar mixture of two separate peptides
B2: SIRPα ITIM1+ITIM2 tandem phosphopeptide (peptide)
peptide: Biotin-TNDIT[pY]ADLNLPKGKKPAPQAAEPNNHTE[pY]ASIQT
notes: SIRPα, human, cytoplasmic stretch with ITIM1 and ITIM2; source: synthetic peptide (Peptide Protein Research Ltd)
B3: EAT-2 Y127 phosphopeptide (Biotin-NSNSDpYVDVLP) (peptide)
peptide: Biotin-NSNSD[pY]VDVLP
notes: EAT-2, human, tail with the conserved tyrosine motif Y127; also called EAT-2 pY127; EAT-2 tail phosphopeptide; source: synthetic peptide (Peptide Protein Research Ltd)
B4: CD244 ITSM1+ITSM2 tandem phosphopeptide (peptide)
peptide: Biotin-EFLTI[pY]EDVKDLKTRRNHEQEQTFPGGGSTI[pY]SMIQS
notes: CD244 (SLAMF4), human, cytoplasmic stretch with ITSM1 and ITSM2; also called tandem ITSM peptide; source: synthetic peptide (Peptide Protein Research Ltd)
B5: CD244 ITSM1 phosphopeptide (Biotin-EFLTIpYEDVKD) (peptide)
peptide: Biotin-EFLTI[pY]EDVKD
notes: CD244 (SLAMF4), human, cytoplasmic ITSM1; also called SLAMF4 ITSM1; source: synthetic peptide (Peptide Protein Research Ltd)
B6: CD244 ITSM3+ITSM4 tandem phosphopeptide (peptide)
peptide: Biotin-PAYTL[pY]SLIQPSRKSGSRKRNHSPSFNSTI[pY]EVIGK
notes: CD244 (SLAMF4), human, cytoplasmic stretch with ITSM3 and ITSM4; source: synthetic peptide (Peptide Protein Research Ltd)
B7: CRACC ITSM2 phosphopeptide (Biotin-PANTVpYSTVEI) (peptide)
peptide: Biotin-PANTV[pY]STVEI
notes: CRACC (SLAMF7), human, cytoplasmic ITSM2; also called SLAMF7 ITSM2; source: synthetic peptide (Peptide Protein Research Ltd)
B8: LAT Y132 phosphopeptide (Biotin-HNPGpYLVVLPD) (peptide)
peptide: Biotin-HNPG[pY]LVVLPD
notes: LAT, human, stretch around Y132; also called LAT pY132; source: synthetic peptide (Peptide Protein Research Ltd)

Experiments:
Details in all cases: both partners purified
[1] = target: T1, SHP-2 N-terminal + C-terminal (N+C) SH2 …; experiment: SPR; biotinylated phosphopeptides immobilised on streptavidin chip (about 25 RU single, 50 RU tandem motifs); soluble recombinant protein injected; 37°C; HBS-EP; equilibrium binding (Table 4; same-day purification not given)
[2] = target: T1, SHP-2 N-terminal + C-terminal (N+C) SH2 …; experiment: SPR; biotinylated tandem phosphopeptides immobilised on streptavidin chip; SHP-2 N+C SH2 injected; 25°C; HBS-EP; equilibrium binding (Table 4)
[3] = target: T2, PLCγ2 SH2-SH2-SH3 (tandem SH2 domains …); experiment: SPR; biotinylated phosphopeptides immobilised on streptavidin chip (about 25 RU single motifs); soluble recombinant protein injected in two-fold dilutions; 37°C; HBS-EP (10 mM HEPES pH 7.4, 150 mM NaCl, 3.4 mM EDTA, 0.005% P20); equilibrium binding, one-site model; proteins purified on the same day as SPR (Tables 1 and 6)
[4] = target: T3, PLCγ1 SH2-SH2-SH3 (tandem SH2 domains …); experiment: as above
[5] = target: T4, EAT-2 (recombinant full-length human …); experiment: as above
[6] = target: T4, EAT-2 (recombinant full-length human …); experiment: SPR; biotinylated phosphopeptides immobilised on streptavidin chip (about 25 RU single, 50 RU tandem motifs); soluble recombinant protein injected; 37°C; HBS-EP; equilibrium binding (Table 4; same-day purification not given)
[7] = target: T5, SHIP SH2 (SH2 domain from human SHIP-1); experiment: as above
[8] = target: T6, SAP (recombinant full-length human SAP); experiment: SPR; biotinylated phosphopeptides immobilised on streptavidin chip (about 25 RU single motifs); soluble recombinant protein injected in two-fold dilutions; 37°C; HBS-EP (10 mM HEPES pH 7.4, 150 mM NaCl, 3.4 mM EDTA, 0.005% P20); equilibrium binding, one-site model; proteins purified on the same day as SPR (Tables 1 and 6)

| Binder | Kd [1] [nM] | Kd [2] [nM] | Kd [3] [nM] | Kd [4] [nM] | also measured |
| --- | --- | --- | --- | --- | --- |
| B1 | 22000 |  |  |  |  |
| B2 | 1000 | 500 |  |  |  |
| B3 |  |  | 30 | 10 |  |
| EDTLTYADLDMVHLNRTPKQPAPKPEPSFSEYASVQV (also: phosphorylated, sites not given here, biotinylated, site not given here) [SIRPα ITIM3+ITIM4 tandem phosphopeptide] |  | 6400 |  |  |  |
| B4 | 2200 | 1400 |  |  |  |
| B5 | 29000 |  | 210 | 800 | Kd [5]: 20 nM; Kd [6]: 60 nM; Kd [7]: 11000 nM |
| B6 | 10000 | 7400 |  |  |  |
| B7 |  |  |  |  | Kd [8]: 440 nM; Kd [5]: 3 nM |
| B8 |  |  | 20 | 20 |  |
| ENTITYSLLMH (also: phosphorylated, site not given here, biotinylated, site not given here) [FCRγIIb (CD32) phosphopeptide] |  |  |  |  | Kd [7]: 470 nM |
